# Assay results reported in the supplement of paper PMC9112550, “Optimization of the antimicrobial peptide Bac7 by deep mutational scanning” (BMC Biology, 2022).
# Test system: Escherichia coli TOP10
# Experiment: shrunken log2 fold change of peptide-encoding DNA abundance (4.5 h post-induction vs induction); higher = less antimicrobial activity (less host growth inhibition)
# Details: time post-induction: 4.5 h; library: site-saturation at positions 5, 18, 19, 20
# 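Note: peptides expressed intracellularly from a pBAD plasmid library in pooled LB shake-flask culture, induced with 0.3% L-arabinose, DNA abundance read by NGS, three biological replicates, DESeq2 with apeglm shrinkage.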
row,Sequence,shrunken log2 fold change
1,RRIRMRPPRLPRPRPRPGYEPRP,0.247
2,RRIRWRPPRLPRPRPRPQQAPRP,-0.000157
3,RRIRKRPPRLPRPRPRPSMIPRP,-0.0957
4,RRIRIRPPRLPRPRPRPVVIPRP,-0.307
5,RRIRQRPPRLPRPRPRPKDYPRP,-0.756
6,RRIRERPPRLPRPRPRPTPTPRP,0.174
7,RRIRFRPPRLPRPRPRPHKTPRP,-0.0597
8,RRIRSRPPRLPRPRPRPGAYPRP,-0.0377
9,RRIRQRPPRLPRPRPRPQELPRP,0.157
10,RRIRARPPRLPRPRPRPNTQPRP,-0.0663
11,RRIRARPPRLPRPRPRPDCWPRP,1.21
12,RRIRLRPPRLPRPRPRPGYNPRP,-0.774
13,RRIRGRPPRLPRPRPRPQRHPRP,0.338
14,RRIRHRPPRLPRPRPRPAEVPRP,-0.0107
15,RRIRGRPPRLPRPRPRPHTIPRP,0.151
16,RRIRSRPPRLPRPRPRPYLPPRP,-0.552
17,RRIRIRPPRLPRPRPRPHERPRP,-0.169
18,RRIRYRPPRLPRPRPRPECTPRP,0.0109
19,RRIRDRPPRLPRPRPRPCLCPRP,0.0206
20,RRIRQRPPRLPRPRPRPGPDPRP,0.163
21,RRIRDRPPRLPRPRPRPYFNPRP,-0.849
22,RRIRMRPPRLPRPRPRPCAGPRP,0.213
23,RRIRWRPPRLPRPRPRPCENPRP,0.285
24,RRIRGRPPRLPRPRPRPMILPRP,-0.0452
25,RRIRVRPPRLPRPRPRPVHSPRP,0.0275

row,Sequence,shrunken log2 fold change
1,RRIRERPPRLPRPRPRPGLMPRP,-0.0269
2,RRIRDRPPRLPRPRPRPLTNPRP,-0.19
3,RRIRARPPRLPRPRPRPALNPRP,0.431
4,RRIRARPPRLPRPRPRPRISPRP,0.0223
5,RRIRQRPPRLPRPRPRPMRNPRP,-0.0579
6,RRIRYRPPRLPRPRPRPPRNPRP,0.142
7,RRIRQRPPRLPRPRPRPGCRPRP,0.342
8,RRIRIRPPRLPRPRPRPDDYPRP,0.07
9,RRIRSRPPRLPRPRPRPRAHPRP,0.409
10,RRIRQRPPRLPRPRPRPVWDPRP,-0.104
11,RRIRDRPPRLPRPRPRPCAPPRP,-0.0226
12,RRIRWRPPRLPRPRPRPHTRPRP,-0.0595
13,RRIRTRPPRLPRPRPRPKTMPRP,-0.0972
14,RRIRCRPPRLPRPRPRPQPNPRP,0.0742
15,RRIRLRPPRLPRPRPRPMLVPRP,-0.225
16,RRIRMRPPRLPRPRPRPKCCPRP,0.26
17,RRIRIRPPRLPRPRPRPFANPRP,-0.0225
18,RRIRERPPRLPRPRPRPIEFPRP,0.101
19,RRIRYRPPRLPRPRPRPFEFPRP,-0.153
20,RRIRYRPPRLPRPRPRPQDHPRP,0.0457
21,RRIRSRPPRLPRPRPRPFWIPRP,-0.299
22,RRIRCRPPRLPRPRPRPHNEPRP,-0.535
23,RRIRVRPPRLPRPRPRPYEQPRP,-0.285
24,RRIRHRPPRLPRPRPRPNYCPRP,-0.0948
25,RRIRYRPPRLPRPRPRPLMAPRP,-0.681

row,Sequence,shrunken log2 fold change
1,RRIRCRPPRLPRPRPRPWSNPRP,0.00372
2,RRIRIRPPRLPRPRPRPLKTPRP,0.0161
3,RRIRVRPPRLPRPRPRPSMWPRP,-0.104
4,RRIRMRPPRLPRPRPRPFKRPRP,0.0293
5,RRIRFRPPRLPRPRPRPFPAPRP,-0.132
6,RRIRIRPPRLPRPRPRPNMTPRP,-0.804
7,RRIRCRPPRLPRPRPRPGTPPRP,0.0685
8,RRIRARPPRLPRPRPRPPMSPRP,0.414
9,RRIRCRPPRLPRPRPRPCICPRP,-0.105
10,RRIRNRPPRLPRPRPRPIMLPRP,-0.482
11,RRIRDRPPRLPRPRPRPKIPPRP,-0.355
12,RRIRDRPPRLPRPRPRPVQLPRP,0.0283
13,RRIRRRPPRLPRPRPRPRMDPRP,2.27
14,RRIRTRPPRLPRPRPRPYNAPRP,-1.3
15,RRIRLRPPRLPRPRPRPDDLPRP,-0.0581
16,RRIRHRPPRLPRPRPRPHWWPRP,0.0507
17,RRIRTRPPRLPRPRPRPINTPRP,-0.687
18,RRIRCRPPRLPRPRPRPAMNPRP,-0.0385
19,RRIRARPPRLPRPRPRPDIHPRP,0.145
20,RRIRDRPPRLPRPRPRPQKLPRP,-0.307
21,RRIRARPPRLPRPRPRPDFRPRP,0.0149
22,RRIRQRPPRLPRPRPRPQVDPRP,-0.0137
23,RRIRIRPPRLPRPRPRPVWCPRP,0.148
24,RRIRKRPPRLPRPRPRPDGIPRP,0.00242
25,RRIRPRPPRLPRPRPRPQSTPRP,-0.136
